Assay results reported in patent US20250361295A1 (ANTENGENE BIOLOGICS, published 2025).
Where a chain is given by its changes, count along the chain named.

B1: ch42-C8-A12-F3-D11 (antibody, V domains shown)
VH: EVHLVESGGDLVKPGGSLKLSCAASGFTFSSHGMSWVRQTPDKRLEWVATISSGGIYTYHPDSVKGRFSISRDNAKKTLYLQMSSLKSEDTGIYYCTRGQVGNWYFDVWGAGTTVTVSS
VL: DIVITQSPAIMSASPGEKVTINCSASSSVSYMHWFQQTPGTSPKLWIYSTSNLASGVPARFSGSGSGTFYSLTISRMEAEDAATYYCQQRSSYPLTFGAGTKLELK
B2: ch25-G9-G4-C12 (antibody, V domains shown)
VH: B1 VH with H3Q, S52N, I56Y, H60Y, S69T, K77N, G92A, I93M, T97A, V101L
VL: B1 VL with I4M, N22T, T38K, F69S
B3: ch10-H9-E3-G3 (antibody, V domains shown)
VH: EVQRVESGGGLVQPGGSRKLSCAASGFTFSSFGMHWVRQAPEKGLEWVAYISSGSSAMYYADTVKGRFTISRDNPKNTLFLQMTSLRSEDTAMYYCARSDGKGAMDYWGQGTSVTVSS
VL: DIQMTQTTSSLSASLGDRVTISCRASQDISNYLNWYQQKPDGTVKLLVYYTSRLHSGVPSRFSGSGSGTDYSLTISNLEQEDIATYFCQQGNTLPWTFGGGTKLEIK
B4: ch25-E7-A10-H6 (antibody, V domains shown)
VH: B3 VH with R4L, S31T, A57T, M58I, D100T, K102T
VL: B3 VL with N31K, V48I
B5: ch27-D11-C2-A10 (antibody, V domains shown)
VH: B3 VH with R4L, S31V, M34V, S56N, A57T, M58I, Y59H, N74I, D100S, K102T
VL: B3 VL with T7S, T20S, T43A, V48I, E79D, I106L
B6: ch27-F11-E10-G10 (antibody, V domains shown)
VH: B3 VH with R4L, A57T, M58I, T69S, Y94F, D100T, K102T
VL: B3 VL with V48I, I106L
B7: ch26-H9-B9-B7 (antibody, V domains shown)
VH: B3 VH with A57T, M58I
VL: B3 VL with Q3V, T7S, V48I
B8: ch27-G5-E9-B8 (antibody, V domains shown)
VH: B3 VH with R4L, A57T, M58I, D100T, K102T
VL: B3 VL with R18S, I21F, V48I, Y49S, T93A
B9: ch4-E6-E4-B12 (antibody, V domains shown)
VH: EVQLKESGAELVKPGASVKLSCKASGYTFTSHWMHWVKQRPGQGLEWIGEINPSNGRTNYNEKFTSKATLTVDQSSSTAYMQLSSLTSEDSAVYYCARGNLTTVVPFDYWGQGTALTVSS
VL: DIVMTQSPSSLSASLGGKVTITCKASQDINKFIAWYQHKPGKGPRLLIHFTSTLQPGIPSRFSGSGSGRDYSFSISNLEPEDIATYFCLQYDLLLTFGGGTKLEIK
B10: ch2-H8-C9-F7-E2 (antibody, V domains shown)
VH: B9 VH with K5Q, E6Q, S31N, H32Y, T65K, Q74K, N100S, A115T
VL: DIQMTQTPSSLSASLGGKVTITCKASQDINNYIAWYQHKPGKGPRLLIHYTSTLQPGIPSRFSGSGSGRDYSFSISNLEPEDIATYFCLQYDILLTFGGGTKLEK
B11: ch7-B4-C1-C9 (antibody, V domains shown)
VH: EVQLQQSGTELVKPGASVKLSCKASGYTFTNYWMHWVKQRPGQGLEWIGEINPSNGRTNYNEKFKTKATLTVDKSSSTAYMQLSSLTSEDSAVYYCARSTYYGYDWYFDVWGAGTTVTVSS
VL: DIVLTQSPSSMYASLGERVTITCKASQDINSYLSWFQQKPGKSPKTLIYRANRLLDGVPSRFSGGGSGQDYSLTISSLEHEDMGIYYCLQCDEFPHTFGGGTKLEIK
B12: IO-202 (antibody, V domains shown)
VH: EVQLLESGGGLVQPGGSLRLSCAASGIDFSNHYYMYWVRQAPGKGLEWIGSIFSGDSASTYYADSAKGRFTISRDNSKNTLYLQMNSLRAEDTAVYYCARGMSTNDWASDLWGQGTLVTVSS
VL: DIQMTQSPSSLSASVGDRVTITCQASESINSIYLAWYQQKPGKAPKLLIYRASTLASGVPSRFSGSGSGTDFTLTISSLQPEDFATYYCQQSYDWGDVENTFGGGTKVEIK

molecular target: T1, human LILRB4 (human, UniProt Q8NHJ6 22-448); assay: cell-based or functional assay

| Binder | ADCP (%) at 133.3 nM, macrophages and MV-4-11 cells [%] |
| --- | --- |
| B1 | 20.4 |
| B2 | 24.2 |
| B3 | 13.7 |
| B4 | 11 |
| B5 | 12.1 |
| B6 | 16.3 |
| B7 | 16.1 |
| B8 | 14.8 |
| B9 | 14.1 |
| B10 | 9.35 |
| B11 | 11.8 |
| B12 | 21.8 |

molecular target: T1, human LILRB4; assay: FACS, 293F-hLILRB4 cells
Description: (§1) The protocol for FACS analysis is described as follows: [0438] (a) Cells were harvested by centrifugation at 300 g for 3 mins. […] (b) The cells were washed for 2 times with FACS buffer by centrifuging at 300 g for 3 mins and the supernatant was discarded. [0440] (c) Cell were resuspended and seeded into assay plate (2×10⁵ cells/well) in 50 μl FACS buffer. […] Cells were incubated with antibodies at 4° C. for 1 hour. […] (d) Step (b) was repeated and the cells were resuspended with 100 μl diluted 2nd antibody, incubated at 4° C. for 1 hour in the dark. [0442] (e) Step (b) was repeated and the cells were resuspended with 100 μl FACS buffer. The cells were kept in dark for FACS analysis.

| Binder | EC50 [nM] | Max MFI [MFI] |
| --- | --- | --- |
| B1 | 1.36 | 48400 |
| B2 | 1.55 | 43300 |
| B3 | 1.41 | 45200 |
| B4 | 1.4 | 45000 |
| B5 | 1.43 | 46800 |
| B6 | 1.52 | 46200 |
| B7 | 1.66 | 46000 |
| B8 | 1.75 | 44300 |
| B9 | 1.09 | 54500 |
| B10 | 1.23 | 41000 |
| B11 | 0.54 | 47300 |
| B12 | 0.016 | 39700 |

molecular target: T2, human LILRA6 protein (human, UniProt Q6PI73 24-447, limits assumed); assay: ELISA, LILRA6 protein
T2 construct: protein for ELISA; construct not described; also called hLILRA6 protein
T2 sequence (Q6PI73 24-447 limits assumed): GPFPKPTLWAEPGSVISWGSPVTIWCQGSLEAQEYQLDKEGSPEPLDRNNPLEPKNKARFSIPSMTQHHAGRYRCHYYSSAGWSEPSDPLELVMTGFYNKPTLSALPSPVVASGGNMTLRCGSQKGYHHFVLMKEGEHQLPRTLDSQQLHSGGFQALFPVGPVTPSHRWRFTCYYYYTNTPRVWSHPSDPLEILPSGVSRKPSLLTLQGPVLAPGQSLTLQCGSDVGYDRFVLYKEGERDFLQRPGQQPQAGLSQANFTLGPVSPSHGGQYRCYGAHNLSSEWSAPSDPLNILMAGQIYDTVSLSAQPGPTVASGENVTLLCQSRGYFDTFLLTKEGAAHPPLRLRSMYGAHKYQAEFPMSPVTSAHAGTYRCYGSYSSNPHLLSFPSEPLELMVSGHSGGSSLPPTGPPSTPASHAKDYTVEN

| Binder | ELISA(OD450) | binding result |
| --- | --- | --- |
| B1 | 0.32 | – |
| B2 | 0.687 | – |
| B3 | – | no binding |
| B4 | – | no binding |
| B5 | – | no binding |
| B6 | – | no binding |
| B7 | – | no binding |
| B8 | – | no binding |
| B9 | 0.353 | – |
| B10 | 0.576 | – |
| B11 | – | no binding |
| B12 | 0.157 | – |

molecular target: T3, human LILRB3 (human, UniProt O75022 24-631); assay: FACS, 293F-hLILRB3 cells
T3 construct: whole, on cells; also called hLILRB3
Description: as §1

T3 sequence (O75022 24-631): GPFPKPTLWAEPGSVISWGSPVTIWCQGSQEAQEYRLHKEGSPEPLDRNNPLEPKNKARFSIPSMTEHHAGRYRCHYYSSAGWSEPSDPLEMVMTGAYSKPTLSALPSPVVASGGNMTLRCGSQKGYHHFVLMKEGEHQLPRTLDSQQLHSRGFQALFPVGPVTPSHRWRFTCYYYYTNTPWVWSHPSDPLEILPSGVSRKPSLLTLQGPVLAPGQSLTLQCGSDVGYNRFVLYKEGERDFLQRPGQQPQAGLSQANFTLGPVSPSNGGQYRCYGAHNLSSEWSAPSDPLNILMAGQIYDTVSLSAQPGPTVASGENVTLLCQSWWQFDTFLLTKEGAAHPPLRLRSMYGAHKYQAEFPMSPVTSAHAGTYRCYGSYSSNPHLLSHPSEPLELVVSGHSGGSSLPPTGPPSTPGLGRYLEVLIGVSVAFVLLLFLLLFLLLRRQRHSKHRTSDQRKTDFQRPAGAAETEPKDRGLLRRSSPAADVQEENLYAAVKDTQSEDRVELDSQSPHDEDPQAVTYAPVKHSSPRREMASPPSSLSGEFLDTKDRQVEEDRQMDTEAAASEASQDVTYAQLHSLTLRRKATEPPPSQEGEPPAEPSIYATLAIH

| Binder | EC50 [nM] | binding result |
| --- | --- | --- |
| B1 | 12.8 | – |
| B2 | – | no binding (tested: up to 66.67 nM) |
| B3 | – | no binding (tested: up to 66.67 nM) |
| B4 | – | no binding (tested: up to 66.67 nM) |
| B5 | – | no binding (tested: up to 66.67 nM) |
| B6 | – | no binding (tested: up to 66.67 nM) |
| B7 | – | no binding (tested: up to 66.67 nM) |
| B8 | – | no binding (tested: up to 66.67 nM) |
| B9 | – | no binding (tested: up to 66.67 nM) |
| B10 | – | no binding (tested: up to 66.67 nM) |
| B11 | – | no binding (tested: up to 66.67 nM) |
| B12 | – | no binding (tested: up to 66.67 nM) |

molecular target: T1, human LILRB4; assay: cell-based or functional assay; remark: another data set of the same source

| Binder | FcγR stimulation (TNF-α, pg/mL) [pg/mL] | Fold change (Compared to isotype) [fold] |
| --- | --- | --- |
| B1 | 308 | 9.73 |
| B2 | 356 | 11.3 |
| B3 | 389 | 12.3 |
| B4 | 390 | 12.3 |
| B5 | 666 | 21.1 |
| B6 | 393 | 12.4 |
| B7 | 547 | 17.3 |
| B8 | 394 | 12.5 |
| B9 | 266 | 8.43 |
| B10 | 310 | 9.82 |
| B11 | 415 | 13.1 |
| B12 | 238 | 7.52 |

molecular target: T1, human LILRB4; assay: cell-based or functional assay; remark: another data set of the same source

| Binder | Max cell cytotoxicity (%), ADCC on THP-1 cells [%] | EC50 (nM), ADCC on THP-1 cells [nM] |
| --- | --- | --- |
| B1 | 14.5 | – |
| B2 | 11 | – |
| B3 | 16.6 | – |
| B4 | 11.7 | – |
| B5 | 20.2 | – |
| B6 | 18.7 | – |
| B7 | 15.2 | – |
| B8 | 16.4 | – |
| B9 | 14.6 | – |
| B10 | 31.1 | 1.38 |
| B11 | 13.9 | – |
| B12 | 13.9 | 248 |
